In patent US7972827B2, “Photoswitchable method for the ordered attachment of proteins to surfaces” (Lawrence Livermore National Security, LLC, priority 2003, dated 2011):

Target: T1, MBP-N-intein fusion protein (Synechocystis sp., UniProt P74750)
T1 construct: made in house; host or cells: E. coli BL21(DE3)pLysS+
Test: in solution trans-splicing activity of photocaged C-intein polypeptides with MBP-N-intein fusion protein
Format: biochemical, Synechocystis sp. PCC6803
Conditions: for trans-splicing activity relative to the non-photocaged C-intein polypeptide: % of the trans-splicing activity of the non-photocaged C-intein polypeptide, SDS-PAGE analysis
Method: In-vitro protein trans-splicing was characterized as follows. Each purified C-intein polypeptide was combined with MBP-N-intein fusion protein in splicing buffer (0.5 mM EDTA, 1 mM TCEP, 50 mM sodium phosphate, 150-500 mM NaCl at pH 7). The concentration of the two proteins was typically in the range 0.1-200 μM. The mixture was allowed to react at 4° C. for 12-16 h. The reaction was then quenched by dilution into SDS-PAGE loading buffer containing 20% v/v 2-mercaptoethanol before the SDS-PAGE analysis. The spliced product was purified using HPLC and characterized by ES-MS as the trans-spliced product. The expected mass (average isotopic composition)=43988.0 Da; measured mass=43986±10 Da.
The in solution trans-splicing activity of each photocaged C-intein polypeptide was assayed using the MBP-N-intein fusion protein expressed as described above.

| Substance | trans-splicing activity relative to the non-photocaged C-intein polypeptide | ability to promote trans-splicing (in words) (with MBP-N-intein fusion protein, data not shown) |
| --- | --- | --- |
| C-intein polypeptide with caged Gly6: DnaE C-intein polypeptide SEQ ID NO:6 with PEGylated thiol linker, photocaged (nitroveratryl) at Gly6 | about 30% | – |
| C-intein polypeptide with caged Gly11: DnaE C-intein polypeptide SEQ ID NO:6 with PEGylated thiol linker, photocaged (nitroveratryl) at Gly11 | around 60% | – |
| C-intein polypeptide with caged Gly19: DnaE C-intein polypeptide SEQ ID NO:6 with PEGylated thiol linker, photocaged (nitroveratryl) at Gly19 | about 30% | – |
| C-intein polypeptide with two caged residues, Gly19 and Gly31: DnaE C-intein polypeptide SEQ ID NO:6 with PEGylated thiol linker, photocaged (nitroveratryl) at both Gly19 and Gly31 | – | completely prevent trans-splicing activity |
